The results in this text go back to a protein production outcome set (Wang et al. 2014).
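Further: failed if final PepcDB status was selected cloned or expressed and not failed if soluble or beyond.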

This data set in a line: label from the status in PepcDB records.
For the sequence “MAKIHVLEKHVAELIAAGEVVERPSSVIKELVENSIDAGATTISVEIQRGGIAYMRVTDNGGGIAREDVPKAFLRNATSKVESAEDLDGIGTLGFRGEALASICAVSRVTLLTRTEEELAGTSYQIEGGEELALEDAGCAKGCTIVVRDLFYNTPARMKFLKKDVSEANAVAGVMDRAALSHPEISFRFVRDHKETLSTPGDRQLRSCIYAVYGKDFTAGLIPVDYAYNGIKVRGFISKPSAARPNRSMQHFFINGRFVKSKTAMVALEQAFKGSIMAGKFPSCVLHLSVPWEAVDVNVHPSKIEVRFLNEKPIFDAVYHGVKSALLSGDQRKEMILPRPKLDPPASQPEQIRLAAKPAIGSAAQETAEKEARLLTSQTEQAPNSSLGAYEKVVSSSAGRLAQPQQAPLGKAPDKAFPQTASGPAVAGTSHIGENAADKKPPSSLPGIGAAGRIPVPYEENEPEIYLPVKRQTAIPAVRDFISSPFSFSDEASKPKAAGEAPGDTGFEAAAADRGRKAEPKAQELSEEAAGEKPESSRQAAAAEPPREEAGLQPFGEKRQRLVGEAFRTYLIIEYGDDELLLIDKHAAHERILYEKLKKESGKSCAQYLLEPIPVTLDKNEYAAVLENQKLFWEAGFEVEDFGGGSVLVRSAPLSLEQEDIASSLMEIAGHLLENKTDMSTEKLDWLYHNIACRAAVKAGQITSDQELIALAVALRENPEIRYCPHGRPVSITLKKREIEKQFGRIQ”, the protein production entry is recorded as “failed”. In the case of “MAKITVGTENQAPIEIYYEDHGTGKPVVLIHGWPLSGRSWEYQVPALVEAGYRVITYDRRGFGKSSQPWEGYEYDTFTSDLHQLLEQLELQNVTLVGFSMGGGEVARYISTYGTDRIEKVVFAGAVPPYLYKSEDHPEGALDDATIETFKSGVINDRLAFLDEFTKGFFAAGDRTDLVSESFRLYNWDIAAGASPKGTLDCITAFSKTDFRKDLEKFNIPTLIIHGDSDATVPFEYSGKLTHEAIPNSKVALIKGGPHGLNATHAKEFNEALLLFLKD”, the protein production entry was “not failed”. Next, “MAKIVQLPDDLSNKIAAGEVVERPASVVKELVENAIDANSSVIEIDVEEAGLASIKVLDDGEGMDAEDCRTAFLRHATSKIKDENDLFRVRTLGFRGEALPSIASVSHLSIKTSTGEGAGTHLTLQGGRIISEQKAPSRRGTEITVTNLFFNTPARLKYMKTIHTELGNITDVVNRIALAHPEVSIRLRHQGKTLLQTNGNGDVRHVLAAIYGTAVAKKMLPLEARSLDFEVKGYIALPEITRASRNYMSSVVNGRYIKNFPLVKAIHEGYHTLLPIGRHPITFIEINMDPLLVDVNVHPSKLEVRLSKETELHELIRDAIKDVFKQQQLIPSVQVPKKTAPLINKPEQQKLDFDQVREPAPLSDSDVEREYKPEPSFSAMKLSSLVKDPPPSAPVEREENVMQDTEPEWPGAEEYTPEAAPAVQAEPEQAGENVQDEETPKERVPIMYPIGQMHGTYILAQNENGLYIIDQHAAQERIKYEYFREKVGEVESEVQDLLVPLTFHYSKNEALTIDQHLDDLAKVGVFLESFGAGSYIVRCHPTWFPKGEETTIIEDIIQQVLDDRTIDIKKLREEAAIMMSCKGSIKANHHLRDDEITALLDELRRTSDPFTCPHGRPIIIHYSTYEMEKMFKRVM”: “failed”; “MAKKKKEILFCDYYEDWVETYKVGAIEDVTLNKYYVAARQLRDICPKLLMSDFSRKDYQLIMNEYGKTHEKQTAKDFHHHIKAAILDAYHDGLLKSDPTYRAVIKGKEPGKKKLEHHHHHH”: “not failed”; “MAKKRSKLEIIQAILEACKSGSPKTRIMYGANLSYALTGRYIKMLMDLEIIRQEGKQYMLTKKGEELLEDIRKFNEMRKNMDQLKEKINSVLSIRQ”: “not failed”. “MAKKTLILYYSWSGETKKMAEKINSEIKDSELKEVKVSEGTFDADMYKTSDIALDQIQGNKDFPEIQLDNIDYNNYDLILIGSPVWSGYPATPIKTLLDQMKNYRGEVASFFTSAGTNHKAYVSHFNEWADGLNVIGVARDDSEVDKWSK”: the protein production entry was “not failed”. As for “MAKKTMGIHHITAIVGHPQENTDFYAGVLGLRLVKQTVNFDDPGTYHLYFGNEGGKPGTIITFFPWAGARQGVIGDGQVGVTSYVVPKGAMAFWEKRLEKFNVPYTKIERFGEQYVEFDDPHGLHLEIVEREEGEANTWTFGEVTPDVAIKGFGGATLLSEQPDKTADLLENIMGLERVGKEGDFVRYRSAGDIGNVIDLKLTPIGRGQMGAGTVHHIAWRANDDEDQLDWQRYIASHGYGVTPVRDRNYFNAIYFREHGEILFEIATDPPGFAHDETQETMGEKLMLPVQYEPHRTQIEQGLLPFEVRELD”, the entry is “not failed”; as for “MAKKVAVLAVNPVNGCGLFQYLEAFFENGISYKVFAVSDTKEIKTNSGMVLIVDDVIANLKGHEDEFDALVFSCGDAVPVFQQYANQPYNVDLMEVIKTFGEKGKMMIGHCAGAMMFDFTGITKGKKVAVHPLAKPAIQNGIATDEKSEIDGNFFTAQDENTIWTMLPKVIEALK”, “not failed”. As for “MAKLSPTTRIFALVIKEILTLFKDPKGRIVLIAPPLLQLLIFSFAATMEIKNISIGILNQDFGKHGYEVIQRFIGSPTFSKVFFIQKQSDIKPIIDNQEAMVVMTIPQDFSRKIESNSQANIQLILDGRRSNATQIVNGYISSIIENYNQEIQKTHGAIMTPPVMVTRSWFNENLLYLWFTVPSLVCILSMLISLVVTALSVARERELGTFDQLLVSPLTPYEILIGKTIPAIIIGLAEGLLMWVAAVWLFDVPFYGSPLLMVYILFIFIMSTVGVGLFISSMCKTQQQAILGVFIYMVPVVTLSGYASPVENMPEWLQDLTWFNPLKFTLIAVIGIFLKGMSALEVFITTWPLLLVGAVTLFIAGWFFKQRME”, the entry is “failed”. Regarding “MAKQDVIELEGTVLDTLPNAMFKVELENGHEILAHVSGKIRMNYIRILPGDKVTVEMSPYDLTRGRITYRYK”, the protein production result is “failed”.

As for “MAKRCALTFKGPMIGNHVSHANNKNKRRLLPNLRSIKIQLDDGTTKRIKVAASTLRTMRKGALEHHHHHH”, the protein production result is recorded as “not failed”. As to “MAKRIFLFILTNILVLTTIGIVLSVLSSVTGVGTYFTADGGIDPMALLVFSLVVGFVGSFTSLAISRWMAKTMMGVRVLNPKKHSLSYEEQQLVDRVHRLSRSAGLTKMPEVGIYRSPEVNAFATGPSKRRSLVAVSSGLLEQMDDAAVEGVLAHEVAHITNGDMVTMTLLQGIVNTFVVFLSRIAAWIASRFVKEDLAPIVHFIAMIIFQIVFSILGSLVVFAYSRHREFHADRGGADLAGKDKMIHALRTLKSYSSRILEDDQTAVQTLKINGKKRSSLFSTHPDLDERIRRLEAK”, the protein production result was “failed”. As to “MAKSKSSQGASGARRKPAPSLYQHISSFKPQFSTRVDDVLHFSKTLTWRSEIIPDKSKGTLTTSLLYSQGSDIYEIDTTLPLKTFYDDDDDDDNDDDDEEGNGKTKSAATPNPEYGDAFQDVEGKPLRPKWIYQGETVAKMQYLESSDDSTAIAMSKNGSLAWFRDEIKVPVHIVQEMMGPATRYSSIHSLTRPGSLAVSDFDVSTNMDTVVKSQSNGYEEDSILKIIDNSDRPGDILRTVHVPGTNVAHSVRFFNNHLFASCSDDNILRFWDTRTADKPLWTLSEPKNGRLTSFDSSQVTENLFVTGFSTGVIKLWDARAVQLATTDLTHRQNGEEPIQNEIAKLFHSGGDSVVDILFSQTSATEFVTVGGTGNVYHWDMEYSFSRNDDDNEDEVRVAAPEELQGQCLKFFHTGGTRRSSNQFGKRNTVALHPVINDFVGTVDSDSLVTAYKPFLASDFIGRGYDD”, the protein production entry was “failed”.
